Data on 6 variants can be found in IntAct's records for PubMed 36931259.

B1: 14-3-3 protein sigma (Homo sapiens), P31947 (parent)
chain: MERASLIQKAKLAEQAERYEDMAAFMKGAVEKGEELSCEERNLLSVAYKNVVGGQRAAWRVLSSIEQKSNEEGSEEKGPEVREYREKVETELQGVCDTVLGLLDSHLIKEAGDAESRVFYLKMKGDYYRYLAEVATGDDKKRIIDSARSAYQEAMDISKKEMPPTNPIRLGLALNFSVFHYEIANSPEEAISLAKTTFDEAMADLHTLSEDSYKDSTLIMQLLRDNLTLWTADNAGEEGGEAPQEPQS
partner: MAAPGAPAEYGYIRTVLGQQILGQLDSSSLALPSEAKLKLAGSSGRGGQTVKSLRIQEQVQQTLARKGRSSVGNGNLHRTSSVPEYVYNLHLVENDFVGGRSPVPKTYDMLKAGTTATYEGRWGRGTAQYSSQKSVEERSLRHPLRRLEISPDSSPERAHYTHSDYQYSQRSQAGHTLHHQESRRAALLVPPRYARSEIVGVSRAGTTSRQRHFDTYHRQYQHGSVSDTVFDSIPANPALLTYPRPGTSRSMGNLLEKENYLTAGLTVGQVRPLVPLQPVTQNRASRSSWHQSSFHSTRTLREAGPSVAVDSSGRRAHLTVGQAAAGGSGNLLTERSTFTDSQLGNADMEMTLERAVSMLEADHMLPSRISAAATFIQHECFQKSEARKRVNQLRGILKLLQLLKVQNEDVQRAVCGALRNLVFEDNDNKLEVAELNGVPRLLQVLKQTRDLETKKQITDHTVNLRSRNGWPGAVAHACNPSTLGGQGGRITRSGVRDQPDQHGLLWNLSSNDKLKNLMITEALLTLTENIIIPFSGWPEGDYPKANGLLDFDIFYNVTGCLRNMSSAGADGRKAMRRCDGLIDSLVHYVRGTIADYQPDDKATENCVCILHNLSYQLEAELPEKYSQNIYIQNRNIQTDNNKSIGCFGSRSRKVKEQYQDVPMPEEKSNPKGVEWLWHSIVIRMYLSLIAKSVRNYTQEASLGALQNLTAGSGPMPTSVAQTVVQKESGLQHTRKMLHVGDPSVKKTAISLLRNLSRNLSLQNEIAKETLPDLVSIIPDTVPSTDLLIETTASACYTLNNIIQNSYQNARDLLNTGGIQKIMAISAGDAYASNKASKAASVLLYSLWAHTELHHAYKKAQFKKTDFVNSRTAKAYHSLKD
B2: 14-3-3 protein sigma (Homo sapiens), P31947 (parent)
chain: B1 chain
partner: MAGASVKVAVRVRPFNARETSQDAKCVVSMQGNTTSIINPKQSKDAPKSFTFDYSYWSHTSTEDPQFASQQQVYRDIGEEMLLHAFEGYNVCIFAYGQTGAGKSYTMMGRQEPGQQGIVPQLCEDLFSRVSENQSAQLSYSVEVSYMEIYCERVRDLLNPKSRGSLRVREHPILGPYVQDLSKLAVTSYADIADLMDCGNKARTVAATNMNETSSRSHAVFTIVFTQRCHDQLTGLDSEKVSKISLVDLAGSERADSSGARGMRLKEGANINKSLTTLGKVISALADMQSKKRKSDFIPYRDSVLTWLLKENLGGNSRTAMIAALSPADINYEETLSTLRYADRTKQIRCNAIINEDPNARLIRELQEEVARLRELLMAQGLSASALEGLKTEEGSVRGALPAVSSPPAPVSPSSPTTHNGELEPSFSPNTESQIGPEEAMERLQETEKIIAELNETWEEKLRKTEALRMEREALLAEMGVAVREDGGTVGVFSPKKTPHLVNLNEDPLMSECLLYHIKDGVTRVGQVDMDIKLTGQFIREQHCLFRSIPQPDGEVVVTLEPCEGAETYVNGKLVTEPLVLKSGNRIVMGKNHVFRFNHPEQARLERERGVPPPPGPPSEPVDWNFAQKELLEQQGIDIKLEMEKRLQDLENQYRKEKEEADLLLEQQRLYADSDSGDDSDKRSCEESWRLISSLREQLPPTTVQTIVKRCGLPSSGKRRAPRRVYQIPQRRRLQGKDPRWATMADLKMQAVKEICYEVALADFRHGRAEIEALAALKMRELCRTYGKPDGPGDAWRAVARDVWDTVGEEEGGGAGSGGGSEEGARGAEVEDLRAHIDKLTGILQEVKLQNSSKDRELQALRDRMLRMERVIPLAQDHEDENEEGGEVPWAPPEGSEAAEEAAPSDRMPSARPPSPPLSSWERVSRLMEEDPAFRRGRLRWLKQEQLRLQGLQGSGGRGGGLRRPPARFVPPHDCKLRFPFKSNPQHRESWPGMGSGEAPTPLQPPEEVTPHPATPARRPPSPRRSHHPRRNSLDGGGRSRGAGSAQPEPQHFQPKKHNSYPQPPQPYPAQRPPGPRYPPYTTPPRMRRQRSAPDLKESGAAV
B3: 14-3-3 protein sigma (Homo sapiens), P31947 (parent)
chain: B1 chain
partner: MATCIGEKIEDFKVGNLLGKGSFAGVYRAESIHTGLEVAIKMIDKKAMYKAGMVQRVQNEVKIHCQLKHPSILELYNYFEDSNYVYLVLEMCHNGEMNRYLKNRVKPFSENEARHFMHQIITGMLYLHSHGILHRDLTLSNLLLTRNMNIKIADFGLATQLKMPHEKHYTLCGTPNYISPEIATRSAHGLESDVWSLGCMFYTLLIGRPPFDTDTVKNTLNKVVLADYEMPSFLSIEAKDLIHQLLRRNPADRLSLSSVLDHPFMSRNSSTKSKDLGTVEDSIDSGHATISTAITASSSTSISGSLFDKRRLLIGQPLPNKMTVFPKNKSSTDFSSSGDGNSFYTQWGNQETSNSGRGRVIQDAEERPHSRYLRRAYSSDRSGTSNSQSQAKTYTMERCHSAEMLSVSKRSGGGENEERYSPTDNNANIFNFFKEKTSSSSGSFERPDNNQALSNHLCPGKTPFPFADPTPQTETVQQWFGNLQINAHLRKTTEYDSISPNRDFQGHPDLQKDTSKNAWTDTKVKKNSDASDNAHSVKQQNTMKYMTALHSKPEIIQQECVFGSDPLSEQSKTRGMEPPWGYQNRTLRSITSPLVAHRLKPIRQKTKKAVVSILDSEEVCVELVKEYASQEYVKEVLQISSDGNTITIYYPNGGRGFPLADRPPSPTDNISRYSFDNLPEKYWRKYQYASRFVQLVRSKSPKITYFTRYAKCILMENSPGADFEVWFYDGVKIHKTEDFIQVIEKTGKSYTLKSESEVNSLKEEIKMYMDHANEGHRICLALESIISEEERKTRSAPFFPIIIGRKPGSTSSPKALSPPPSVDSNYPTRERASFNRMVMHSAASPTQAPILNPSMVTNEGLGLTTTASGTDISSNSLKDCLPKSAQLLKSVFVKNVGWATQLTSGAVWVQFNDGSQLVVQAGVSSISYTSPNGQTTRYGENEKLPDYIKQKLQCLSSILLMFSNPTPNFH
B4: 14-3-3 protein sigma (Homo sapiens), P31947 (parent)
chain: B1 chain
partner: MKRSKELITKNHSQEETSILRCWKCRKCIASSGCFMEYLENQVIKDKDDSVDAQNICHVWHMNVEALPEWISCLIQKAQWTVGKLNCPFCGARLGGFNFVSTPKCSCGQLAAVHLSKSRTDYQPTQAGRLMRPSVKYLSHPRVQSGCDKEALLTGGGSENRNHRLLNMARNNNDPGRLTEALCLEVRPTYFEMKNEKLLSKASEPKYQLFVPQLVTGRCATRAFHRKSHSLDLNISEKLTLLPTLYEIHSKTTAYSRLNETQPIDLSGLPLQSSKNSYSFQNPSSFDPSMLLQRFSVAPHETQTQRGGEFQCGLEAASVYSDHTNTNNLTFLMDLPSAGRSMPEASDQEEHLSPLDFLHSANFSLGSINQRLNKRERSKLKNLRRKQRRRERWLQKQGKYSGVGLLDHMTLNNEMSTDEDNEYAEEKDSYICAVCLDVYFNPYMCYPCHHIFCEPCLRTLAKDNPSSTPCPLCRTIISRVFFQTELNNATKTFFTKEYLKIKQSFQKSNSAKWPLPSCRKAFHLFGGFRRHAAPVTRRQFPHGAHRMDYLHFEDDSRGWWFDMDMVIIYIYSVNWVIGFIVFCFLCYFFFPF
B5: 14-3-3 protein sigma (Homo sapiens), P31947 (parent)
chain: B1 chain
partner: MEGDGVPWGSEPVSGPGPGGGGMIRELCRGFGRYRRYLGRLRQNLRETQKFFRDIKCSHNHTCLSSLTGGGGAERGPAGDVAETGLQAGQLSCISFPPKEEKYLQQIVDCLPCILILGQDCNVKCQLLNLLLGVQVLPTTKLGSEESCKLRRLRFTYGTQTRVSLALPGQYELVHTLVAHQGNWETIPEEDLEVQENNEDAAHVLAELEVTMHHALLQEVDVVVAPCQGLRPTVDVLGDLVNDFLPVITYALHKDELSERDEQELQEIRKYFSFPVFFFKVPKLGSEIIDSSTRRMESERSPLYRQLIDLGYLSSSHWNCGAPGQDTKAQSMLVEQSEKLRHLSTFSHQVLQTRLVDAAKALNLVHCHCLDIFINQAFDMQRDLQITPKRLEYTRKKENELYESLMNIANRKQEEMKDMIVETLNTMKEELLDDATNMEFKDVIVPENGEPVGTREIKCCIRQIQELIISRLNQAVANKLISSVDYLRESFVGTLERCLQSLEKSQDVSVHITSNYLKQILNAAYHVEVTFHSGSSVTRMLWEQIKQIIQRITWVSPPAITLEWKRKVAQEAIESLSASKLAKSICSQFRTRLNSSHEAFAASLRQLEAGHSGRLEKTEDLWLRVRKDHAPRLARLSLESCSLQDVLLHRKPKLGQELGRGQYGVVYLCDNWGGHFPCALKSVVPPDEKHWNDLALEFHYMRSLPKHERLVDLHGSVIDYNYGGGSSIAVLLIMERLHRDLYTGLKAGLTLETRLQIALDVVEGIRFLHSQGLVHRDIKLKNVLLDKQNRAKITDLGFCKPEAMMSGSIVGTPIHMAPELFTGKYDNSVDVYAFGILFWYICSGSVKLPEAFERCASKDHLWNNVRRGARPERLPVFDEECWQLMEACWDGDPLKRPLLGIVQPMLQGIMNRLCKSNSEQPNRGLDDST
B6: 14-3-3 protein sigma (Homo sapiens), P31947 (parent)
chain: B1 chain
partner: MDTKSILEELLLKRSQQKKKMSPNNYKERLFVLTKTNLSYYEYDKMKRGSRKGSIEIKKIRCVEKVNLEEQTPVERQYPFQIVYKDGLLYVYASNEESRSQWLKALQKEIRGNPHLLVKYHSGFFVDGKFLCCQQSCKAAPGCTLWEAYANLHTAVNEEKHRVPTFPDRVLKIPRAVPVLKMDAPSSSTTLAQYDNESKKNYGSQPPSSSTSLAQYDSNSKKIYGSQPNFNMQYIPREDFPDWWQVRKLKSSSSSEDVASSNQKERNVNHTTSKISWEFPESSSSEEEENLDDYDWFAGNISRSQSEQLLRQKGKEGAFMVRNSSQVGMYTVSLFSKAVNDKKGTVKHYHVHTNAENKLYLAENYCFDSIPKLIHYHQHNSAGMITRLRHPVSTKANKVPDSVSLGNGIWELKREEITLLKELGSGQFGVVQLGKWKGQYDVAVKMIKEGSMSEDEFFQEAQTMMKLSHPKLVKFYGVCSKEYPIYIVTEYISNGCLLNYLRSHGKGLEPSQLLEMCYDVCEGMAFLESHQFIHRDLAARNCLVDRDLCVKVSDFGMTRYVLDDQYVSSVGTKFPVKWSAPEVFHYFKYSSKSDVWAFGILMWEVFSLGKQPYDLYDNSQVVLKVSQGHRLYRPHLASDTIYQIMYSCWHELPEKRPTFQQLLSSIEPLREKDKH

In the first assay the parent is B1. As to conditions: with pkp2_human PKP2, Q99959.
As for K49E;R56E;V178D, the “effect of a mutation on the interaction” value is recorded as “decreasing interaction strength”.

Variants of B2 are the subject of the next assay. As to conditions: with kif1c_human KIF1C.
Consider K49E;R56E;V178D, for which the “effect of a mutation on the interaction” value is “decreasing interaction strength”.

In the next assay the parent is B3. The settings on record: with plk4_human PLK4, O00444.
Consider K49E;R56E;V178D, for which the “effect of a mutation on the interaction” value is given as “decreasing interaction strength”.

The variants in a further assay derive from B4. As to conditions: with rn180_human RNF180, Q86T96.
In the case of K49E;R56E;V178D, the “effect of a mutation on the interaction” value is “decreasing interaction strength”.

Variants of B5 are the subject of another assay. As to conditions: with dusty_human DSTYK.
Consider K49E;R56E;V178D, for which the “effect of a mutation on the interaction” value is listed as “decreasing interaction strength”.

The variants in a further assay derive from B6. As to conditions: with bmx_human BMX.
As to K49E;R56E;V178D, the “effect of a mutation on the interaction” value is “decreasing interaction strength”.
